Results taken from the nanobody polyreactivity screen of Harvey et al. (2022).

Test: yeast display, Sf9 membrane polyspecificity reagent, FACS + sequencing; frameworks hold sequencing errors
Method in brief: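 Sorting gates, low and high (top ~1%), were placed on anti-HA fluorescence to track expression and on streptavidin fluorescence to track reagent binding. A clone's polyreactivity label is taken from the gate it came out of. The reagent was 10% biotinylated, detergent-solubilized Sf9 membrane, applied for 1 hour at 4 °C to galactose-induced yeast display cells.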
In the case of “QVQLVESGGGLVKAGGSLRLSCAASGFILRAYAMGWYRQAPGKEREFVAAITRRGGRTYYADSVKGRFTISRDNAKKTVSLQMYSLKPEDTAVYYCNRVERRGTYDYWGQGTQVTVSS”, the “polyreactivity (PSR sort gate)” value is reported as “high polyreactivity”. In the case of “QVQLVESGGGLVKAGGSLRLSCAASGFIYKFYAMGWYRQAPRKERELVAAINYSGGSTYYADSVKGRFTISRDNAKNTVYLKMNSLKPEDTAVFYCNALYTYGWYSDDYWGQGTQVTVSS”, the “polyreactivity (PSR sort gate)” value is reported as “high polyreactivity”. With “QVQLVESGGGLVKAGGSLRLSCAASGFTFPQYAMGWYRQAPGKESELVAAISKRSGGTRYADSVKGRFTISRDNAKNTVYLQMNSLKPEDTAVYYCAAATPSGYYYWGQGTQVTVSS” the “polyreactivity (PSR sort gate)” value was “high polyreactivity”. In the case of “QVQLVESGGGLVKAGGSLRLSCAASGFTFRRNAMGWYRQAPGKERELVAAITYNGGTTYYADSVKGRFTISRDNAKNTVYLQMNSLKPEDTAVDYCNAPYGRQGYDYWGQGTQVTVSS”, the “polyreactivity (PSR sort gate)” value is reported as “low polyreactivity”. For “QVQLVESGGGLVKAGGSLRLSCAASGGTFPLYAMGWYRQAPGKERELVAAIRWSGGRTYYADSVKGRFTISRDNAKNTVYLQMNSLKPEDTAVYYCSADYDDGWGYDYWGQGTQVTVSS”, the “polyreactivity (PSR sort gate)” value was “high polyreactivity”. For “QVQLVESGGGLVKAGGSLRLSCAASGNIFRRYAMGWYRQARGKERELVAAITWRGGNTYYADSVKGRFTISRDNAKNTVYLQMNCLKPEDTAVYYCNRVYRQRLGRDYWGLGTQVTVSS”, the “polyreactivity (PSR sort gate)” value was “high polyreactivity”. In the case of “QVQLVESGGGLVKAGGSLRLSCAASGRIDWYYAMGLYRQAPRKERDLVAAISRSGGTTYYADSVKGRFTISRDNAKNSVFLQMNSLQPEDTEVYYCAAVFHAYTGYEAWEEYEYWGQGTQVTVSA”, the “polyreactivity (PSR sort gate)” value is reported as “high polyreactivity”. With “QVQLVESGGGLVKAGGSLRLSCAASGRIFRYYAMGRYRQAPGKEREFVAAISTDGGRTYYADSVKGRFTISRDNAKNTVYLQMNSLKPEDTAVYYCAIYPGISGYNYWGQGTQVTVSS” the “polyreactivity (PSR sort gate)” value was “high polyreactivity”. In the case of “QVQLVESGGGLVKAGGSLRLSCAASGRTFFRNAMGWYRQAPGKEREFVAAINSSGGSTYYADSVKGRFTISRDNAKNTVYFQMNSLKPEDTAVYYCARYHYPFYKPYGFGYWGQGTQVTVSS”, the “polyreactivity (PSR sort gate)” value is reported as “high polyreactivity”. In the case of “QVQLVESGGGLVKAGGSLRLSCAASGSIYTNAMGWYRQAPGKERELVAAISWSGGRTYYADSVKGRFTISRDNAKNTVYLQINSLKPEDTAVYYCNPRGTRIASGHYYWGQGTLVTVSS”, the “polyreactivity (PSR sort gate)” value is reported as “high polyreactivity”. With “QVQLVESGGGLVKAGGSLRLSCAASGSTFPLYAMGWYRQAPGKEREFVAAIRWIGGSTYYADSVKGRFTISRDNAKNTVYLQMNSLKPEDTAVYFCAADYVVSAFDYWGQGTQVTVSS” the “polyreactivity (PSR sort gate)” value was “low polyreactivity”. In the case of “QVQLVESGGGLVKAGGSLRLSCAASGSTFYNYAMGWYRQAPGKERELVAAISTRGGSTYYADSVKGRFTISRDNAKNTVYLQMNSLKPEDTAVYYCAADGRGGHDDYWGQGTQVTVSS”, the “polyreactivity (PSR sort gate)” value is reported as “high polyreactivity”. For “QVQLVESGGGLVKAGGSLRLSCAASGSTIGGNAMVWYRQAPGKERELVASITRSGGSTYYADSVKGRFTISRDNAKNNVYLQMNSLKPEDSAVYYCAAGKWYRSPWKYDYWGQVTQVTVSS”, the “polyreactivity (PSR sort gate)” value was “low polyreactivity”. With “QVQLVESGGGLVKAGGSLRLSCAASGSTSQVNDMGWYRQAPGTERELVGAISSTGDRTYYADSVKGRFTISRDNAKNNVYLQMNSLKPDDTAVYYCANDPFPFPCGDYWGQGTQVTVSS” the “polyreactivity (PSR sort gate)” value was “low polyreactivity”. For “QVQLVESGGGLVKAGGSLRLSCAASGYTFGKYAMGWYRQAPGKERELVAAISWSGGSTYYADSVKGRFRISRDNAKNTVYLQMNSLKPEDTAVYYCNKGYFGRYGYWGQGTQVTVSS”, the “polyreactivity (PSR sort gate)” value was “high polyreactivity”. For “QVQLVESGGGLVKAGGSLRLSCASSGRIFRYYTMGWYRQAPGKERELVAAISTSDDSTNYADSVKGRFTISRDNAKNTVYLQMNSLKPEDTAVYYCAADQSRVGSYQDYDYWGQGTQVTVSS”, the “polyreactivity (PSR sort gate)” value was “low polyreactivity”. In the case of “QVQLVESGGGLVKARGSLLLSCAASGFTFPYNAMGWYRQAPGKDRELVAAISWSGGSTYYADSVKGRFTLSRDNAKNTVYLQMNSLKPEDTAVYYCAASYWWIPMEYWGQVTQVTVSS”, the “polyreactivity (PSR sort gate)” value is reported as “high polyreactivity”. With “QVQLVESGGGLVKARGSLRLSCAASGFTFGSYAMGWYRQAPGKERELVAAITRGSGGTYYADSVKGRFTISRDNAKNTVYVQMNSLKPEDTAVYNCASCSRSRGALRFAHFDYWGQGTQGTVSS” the “polyreactivity (PSR sort gate)” value was “high polyreactivity”. With “QVQLVESGGGLVLAGGRLRLSCAASGSTFGYYAMGWYRQAHGKERELVAAISQGAGRTYYADSVKGRFTISRDNAKNTDYLQMNSLKPEDSAVYYFAASVTVHRWAYGYWGQGTQVTVSS” the “polyreactivity (PSR sort gate)” value was “high polyreactivity”. For “QVQLVESGGGLVLAGGSLRLSCAASGGTFARYAMGWYRQAPGKERELVAAISRGGSTNYADSVKGRFTISRDNAKNTVYLQMNSLKPEDTAVYYCAAGSRRAAWYDYSYPYGYWGQGTQVTVSS”, the “polyreactivity (PSR sort gate)” value was “high polyreactivity”. With “QVQLVESGGGLVLAGGSLRLSCAASGRIFIGNAMGWYRQAPGKERELVAAISKRGGSTYYADSVKGRFTISRDNAKNTVYLQMISLKPEDTAVYYCNKEPLYREFDYWGQGTQVTVSS” the “polyreactivity (PSR sort gate)” value was “low polyreactivity”. With “QVQLVESGGGLVLAGGSLRLSCAASGRIFLRNAMGWYRQAPGKVRELVATITSRGGSTYYADSVKGRFTISRDKAKNTVYLQMNSLKPEDTAVYYCAADPRRYRGFGYVYGGFYYWGQGTQVTVSS” the “polyreactivity (PSR sort gate)” value was “low polyreactivity”. For “QVQLVESGGGLVLAGGSLRLSCAASGRIFTNNVMGWYRQAPGKERELVAAISRSGGRTYYADSVKGRFTISRDNAKNTVYLQMNSLKPEDTAVYYCAAVYQKAATDKYESVYESYYWGQGTQVTVSS”, the “polyreactivity (PSR sort gate)” value was “high polyreactivity”. With “QVQLVESGGGLVLAGGSLRLSCAASGRSFVSNALGWSRQAPGSDRELVARISNGASTDADSVKGRFTISRDNAKKTVYLQINSLKPEDTAVYYSAKTTRRGGVALGEYDYWGQLTQVTVSS” the “polyreactivity (PSR sort gate)” value was “low polyreactivity”. For “QVQLVESGGGLVLAGGSLRLSCAASGRTFRSYAMGWYRQAPGKERELVAAISSGGSTNYADSVKGRFTISRDNAKNTVYLQMNSLKPEDTAVYYCAATFQLYRFIGYEYWGQGTQVTVSS”, the “polyreactivity (PSR sort gate)” value was “high polyreactivity”. With “QVQLVESGGGLVLAGGSLRLSCAASGSIFQPNAMGWYRQAPGKERELVASIRGRGGDTYYADSVKGRFTISRDNAKNSVYLQMNSLKPEDTAVDYCAADYRWGQGTQVTVSS” the “polyreactivity (PSR sort gate)” value was “low polyreactivity”. For “QVQLVESGGGLVLAGGSLRLSCAASGSTFFSYMGWYREAPGKERELVAANTSGAITYYADSVKGRFTISRDNAKNTVYLQMNSLKPEDTAVYYCNTDRYYVTLRNLEMDYWGQGTQVTVSS”, the “polyreactivity (PSR sort gate)” value was “low polyreactivity”. In the case of “QVQLVESGGGLVLAGGSLRLSCAASRFILRDNGMGWNRKAPVKERELVAAISERGGRTDYADSVKGRFTISRDNAKNTVYLQMNSLKPEDTAVYYCAAEDIANFYYWGQGPQVTVSS”, the “polyreactivity (PSR sort gate)” value is reported as “high polyreactivity”. With “QVQLVESGGGLVLAGGSLRLSCADSGLILRLNAMGWYRQAPGKDRELVATINRGGSTNYADSVKGRFTISRDNAKNTVFLQMNSLNPEDTAVDYCNKARTSQYHHTYWRTYGYWGQGTQVTVSS” the “polyreactivity (PSR sort gate)” value was “low polyreactivity”. In the case of “QVQLVESGGGLVLAGGSLRLSGAASGRISGYNVLGWARQAAGKERELVAAISGSGGSTYYADSVKGRFTISRDNAKNTVYLQMNSLKPEDTADYYCGKATGYPYDYWGHGTQVTVSS”, the “polyreactivity (PSR sort gate)” value is reported as “low polyreactivity”. With “QVQLVESGGGLVLAGGSLRLSSAASGSIFYRNAMGWYRQSPGKERQLVATITVNGGRTYYADSVKGRFTISRDIAKNTVYLQMNSLKPEDTAVYYCAKDVHRWYPYDYCGQGTQVTVSS” the “polyreactivity (PSR sort gate)” value was “low polyreactivity”. For “QVQLVESGGGLVLAGVSLRLSCAASGSTFPYNAMGWYRQAPGKERELVAAITSRGGSTYYADSVKGRFTISRDNAKNTVYLQMNSLKPEDTAVYYCATPGDTYGWTRRRYYYWGQGTQVTVSS”, the “polyreactivity (PSR sort gate)” value was “high polyreactivity”. With “QVQLVESGGGLVNAGGSLRLSCAASGSTFYLYHMGWYRQAPGKEREFFARITWSGGSTYYADSVKGRFTLSRDNAKNTVYLQMNSLKPEDTAVYYCNKVYGQRNSYPDYDYWGQGSQVTVSS” the “polyreactivity (PSR sort gate)” value was “high polyreactivity”. For “QVQLVESGGGLVPAGGSLRLRCAASGSTFPYYAMGGYRQAPGKERELVAAIRRSGANTYYADSVKGRFTISRDNAKNTVYLQMNSLKPEDTAVYYCNVEYVISWWLYDYWGQGTQVTVSS”, the “polyreactivity (PSR sort gate)” value was “low polyreactivity”. In the case of “QVQLVESGGGLVPAGGSLRLRCAASGYIFRQNAMGWYRQAPGKERELVAVITARGGSTYYADSVKGRFTISRDNEKNTVYLQMNSLKPEDTAVYYCNARYYRRQYRGGAYWGQGTQVTVSS”, the “polyreactivity (PSR sort gate)” value is reported as “low polyreactivity”. For “QVQLVESGGGLVPAGGSLRLSCAASGFIFGGYAMGWYRQAPGKERELVADITTSGDSTYYADSVKGRFTISRDNAKNTVYLQMNSLKPEDTAVYYCNAKRSFRWTYGYWGQGTQVTVSS”, the “polyreactivity (PSR sort gate)” value was “high polyreactivity”. In the case of “QVQLVESGGGLVPAGGSLRLSCAASGFTFNSNAMGWYRQAPGKERELVAAISGSGGRTYYADSVKGRFTISRDNAKNTVYLQRNSLKPEDTAVYYCAADYPVRSYDYWGQGTQVTVSS”, the “polyreactivity (PSR sort gate)” value is reported as “low polyreactivity”. In the case of “QVQLVESGGGLVPAGGSLRLSCAASGNIYRYYVMGWYRQAPGKEREFVAAITSSGGSTYYADSVKGRFTISRDNAKNTVYLQMNSLKPEDTAVYYCAKDYWDPGWAEYDDWGQGTQVTVSS”, the “polyreactivity (PSR sort gate)” value is reported as “low polyreactivity”. For “QVQLVESGGGLVPAGGSLRLSCAASGNNFRANTMGWYRQARGKERELVASIRRSGGSSYYADSVKGRFTISRDNAKNTVYLQMNSLKPEDTAAYYCAAESRPPYTDNYYWGQGTQVTVSS”, the “polyreactivity (PSR sort gate)” value was “high polyreactivity”. For “QVQLVESGGGLVPAGGSLRLSCAASGRTLGYNAMGWYRQAPGKERELVAAISRGDSTNYADSVKGRFTISRDNAKNTVYLQMNSLKPEDTAVYYCAAAFPRYRSRAIRVDYWGQGTQVTVSS”, the “polyreactivity (PSR sort gate)” value was “high polyreactivity”. In the case of “QVQLVESGGGLVPAGGSLRLSCAASGSIFVKYALGRYRPAPGKERELVAAISRSGTRTYYADSVKGRFTISRDNAKNTVYLQMNSLKPEDTAVYYCAAAATTVRPYEYWGQGTQVTVSS”, the “polyreactivity (PSR sort gate)” value is reported as “high polyreactivity”. In the case of “QVQLVESGGGLVPAGGSLRLSCAASGSNFYWYVMGWYRQAPGKERELVADIRYSPGRTYYADSVKGRFTISRDNAKNTVYLQMNSLIPEDTAVYYCKARRRLFTVDFDYWGQGTQVTVSS”, the “polyreactivity (PSR sort gate)” value is reported as “high polyreactivity”. For “QVQLVESGGGLVPAGGSLRLSCAASGSTFKIYAMGWYRQAPGKERELVARITSGGSTNYADSVKGRFTISRDNAKNTVYLQMNSLKPDDTAVYYCAARRWSYSTRGQRSTNLDYWGQGTQVTVSS”, the “polyreactivity (PSR sort gate)” value was “high polyreactivity”.
